Reference: US20210380977, “MYOCARDIAL ENHANCER RNA AND METHODS OF USE” (THE TRUSTEES OF INDIANA UNIVERSITY, published 2021)
Changes are numbered by the printed parent chain.

T1: CTCF (UniProt P49711 P49711:1-727)
T1 sequence: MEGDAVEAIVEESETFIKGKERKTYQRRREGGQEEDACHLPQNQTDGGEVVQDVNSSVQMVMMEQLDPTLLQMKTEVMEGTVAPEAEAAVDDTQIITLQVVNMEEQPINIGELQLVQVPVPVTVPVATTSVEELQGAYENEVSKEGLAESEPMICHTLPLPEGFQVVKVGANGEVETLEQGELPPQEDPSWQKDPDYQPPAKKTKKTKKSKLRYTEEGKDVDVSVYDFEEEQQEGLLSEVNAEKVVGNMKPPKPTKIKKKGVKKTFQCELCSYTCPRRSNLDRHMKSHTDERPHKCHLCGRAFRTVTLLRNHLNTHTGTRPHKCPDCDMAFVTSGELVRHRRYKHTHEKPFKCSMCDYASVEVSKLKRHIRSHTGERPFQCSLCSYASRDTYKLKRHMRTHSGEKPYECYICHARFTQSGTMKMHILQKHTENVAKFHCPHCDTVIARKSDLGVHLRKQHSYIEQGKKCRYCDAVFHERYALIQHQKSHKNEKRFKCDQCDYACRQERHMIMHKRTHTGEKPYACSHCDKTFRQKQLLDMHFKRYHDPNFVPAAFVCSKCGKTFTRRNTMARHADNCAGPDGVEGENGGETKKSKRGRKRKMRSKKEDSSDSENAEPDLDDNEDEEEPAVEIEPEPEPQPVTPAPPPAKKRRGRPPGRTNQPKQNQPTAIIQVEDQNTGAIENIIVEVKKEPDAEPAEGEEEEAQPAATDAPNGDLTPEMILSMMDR

B1: eDNA CTCF site dsDNA probe (dsDNA)
DNA 1: GGTCAGCCACACAACAGAGGGGGTGGCACAGCTCTTGGGA
DNA 2: TCCCAAGAGCTGTGCCACCCCCTCTGTTGTGTGGCTGACC
B2: mutant CTCF site dsDNA probe (dsDNA)
DNA 1: B1 DNA 1 with G19A, G20A, G21A, G22A, G23A
DNA 2: B1 DNA 2 with C18T, C19T, C20T, C21T, C22T

Experiments:
CTCF [1] = biological target: T1, CTCF; assay: EMSA; 200 ng CTCF, 10 mM HEPES pH 7.3, 10 mM NaCl, 1 mM MgCl2, 5 ug tRNA, RT; settings: tags: Abnova H00010664-P01; label: 5' biotin on the reverse complementary strand
Method: (§1) All these biotin-labelled probes were incubated with 200 ng CTCF recombinant proteins (H00010664-P01, Abnova) in 20 μl 1× binding buffer (10 mM HEPES-KOH, pH 7.3, 10 mM NaCl, 1 mM MgCl₂, 1 mM DTT) with 5 μg tRNA carrier at room temperature for 30 min. The reactions were then loaded onto 6% Novex TBE gels (EC6265BOX, Thermo Fisher Scientific) and transferred to Bright Star-Plus positive charged membrane (AM10110, Thermo Fisher Scientific). Biotin-labeled probes were detected by Chemiluminescent Nucleic Acid Detection Module (89880, Thermo Fisher Scientific) using Odyssey Imaging System (LI-COR).
(§2) We next asked whether Brg1 or its associated factor could bind to Uhrt-eDNA hybrid. We first investigated the role in eDNA looping of CCCTC-binding factor (CTCF), a regulator protein essential for chromatin looping and three-dimensional structure formation. CTCF contains 11 highly conserved zinc finger domains, capable of binding to specific double-stranded DNA sequence to cause chromatin looping. We found a CTCF consensus binding motif (AGGGGGTGG; SEQ ID NO: 43) on eDNA near the conserved MEF2A and GATA4 sites. ChIP analysis of heart tissues verified CTCF was enriched on eDNA region in E13.5 hearts, whereas its occupancy on eDNA dropped by 42% in normal adult hearts, but was increased by 81% and restored to fetal levels by TAC, while CTCF protein levels remained unchanged. […]

CTCF [2] = biological target: T1, CTCF; assay: EMSA; mutation disrupted CTCF binding; settings: tags: Abnova H00010664-P01; label: 5' biotin
Method: as §1, §2

Binder	binding result (CTCF [1])	binding result (CTCF [2])
B1	binds	–
B2	–	no binding
